What was measured:
[1] = target: Claudin23 10-mer (Homo sapiens)
FD1 = assay: competition
FD2 = assay: competition
FD3 = assay: competition
[2] = target: LPA2 6-mer (Homo sapiens); assay: competition
RD1 = assay: competition
RD2 = assay: competition
RD3 = assay: competition
[3] = target: LPA2 10-mer (Homo sapiens)
CAT = assay: competition
CST = assay: competition

Binder	Kd [1] [µM]	Ki (FD1) [µM]	Ki (FD2) [µM]	Ki (FD3) [µM]	Ki [2] [µM]	Ki (RD1) [µM]	Ki (RD2) [µM]	Ki (RD3) [µM]	Kd (FD2 8-mer) [µM]	Kd [3] [µM]	Ki (CAT) [µM]	Ki (CST) [µM]
MAGI-3 PDZ6 (M3P6) PDZ6, Q5TCQ9 (protein) GCYPVELERGPRGFGFSLRGGKEYNMGLFILRLAEDGPAIKDGRIHVGDQIVEINGEPTQGITHTRAIELIQAGGNKVLLLLRPGTGLI	3.6	600	> 1000	> 1000	47.4	1.8	2.7	6.8	–	–	–	–
NHERF-2 PDZ2 (N2P2) PDZ2, Q15599 (protein) LRPRLCHLRKGPQGYGFNLHSDKSRPGQYIRSVDPGSPAARSGLRAQDRLIEVNGQNVEGLRHAEVVASIKAREDEARLLVVDPETD	–	14.2	6.8	9.1	28.4	5.4	12.5	4.6	3.6	11.5	254	54.8

— publication PMC4970318
